Measured values as given in publication PMC8567388.

Experiments:
[1] = molecular target: PSD-95 PDZ1 6xHis (human); test: ITC
[2] = molecular target: PSD-95 PDZ1-2 6xHis (human); test: ITC

B1: Stargazin_CT (aa 203-323) (domain or fragment)
chain: DRHKQLRATARATDYLQASAITRIPSYRYRYQRRSRSSSRSTEPSHSRDASPVGVKGFNTLPSTEISMYTLSRDPLKAATTPTATYNSDRDNSFLQVHNCIQKDSKDSLHANTANRRTTPV
**Q.** With B1 as the binder, how does the Kd [1] read?
**A.** The Kd was 100 µM.

**Q.** And the Kd [2]?
**A.** The Kd was 12 µM.
